The assay concerns the target monoacetylated histone H3 peptide …(AcK)APRKQL, acetylated on lysine-14. Put plainly: cell-based or functional assay.

Sequence of monoacetylated histone H3 peptide …(AcK)APRKQL, acetylated on lysine-14 (peptide, as listed by the source): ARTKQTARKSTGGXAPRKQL

Turning to “recombinant human SIRT2 (6xHis-tagged, with factor Xa cleavage site, purified from E. coli) (from UniProt Q8IXJ6 1-389) (enzyme)”, the Km, deacetylation of acetylated H3 peptide, charcoal-binding assay was determined as 54.2 µM and the V/K, deacetylation of acetylated H3 peptide, charcoal-binding assay worked out at 3930 M⁻¹ s⁻¹.

For “recombinant yeast Hst2p (from UniProt P53686 1-357) (enzyme)”, the Km, deacetylation of acetylated H3 peptide, charcoal-binding assay was 0.28 µM and the V/K, deacetylation of acetylated H3 peptide, charcoal-binding assay amounted to 718000 M⁻¹ s⁻¹.

Source of the values: patent publication US20040028607A1.
